Data: patent CN108101990A (UNIV ZHEJIANG, dated 2018)

Target: T1, 人Tim-3胞外区 (human, UniProt Q8TDQ0 22-202)
T1 construct: extracellular domain; also called T细胞免疫球蛋白黏蛋白分子3
T1 sequence (looked up): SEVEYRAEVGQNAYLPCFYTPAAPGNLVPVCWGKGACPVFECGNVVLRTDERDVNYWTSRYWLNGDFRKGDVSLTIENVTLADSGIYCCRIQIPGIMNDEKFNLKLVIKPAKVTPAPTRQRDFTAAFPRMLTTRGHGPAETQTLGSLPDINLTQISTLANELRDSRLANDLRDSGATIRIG
Test: hybridoma screening, indirect ELISA

B1: 抗人Tim-3单克隆抗体CDT1 (antibody, V domains shown)
VH: VKLQESGGGLVQPGGSLRLSCATSGFTFTDYYMSWVRQPPGKALEWLGFIRNKANGYTTEYSASVKGRFTISRDYSQSILYLQMNTLTAEDSATYFCARDLDYWGQGTTVTVSS
VL: NIMMTQSPSSLAVSAGEKVTMSCKSSQSVLYSSNQKNFLAWYQQKPGQSPELLIYWASTRVSGVPDRFTGSGSGTDFTLTISNVQAEDLAVYYCHQYLSLRTFGGGTKLEI
notes: also called CDT1抗体
binding result: binds
